# Assay results taken from patent US20250235516A1 (UNIVERSITY OF SOUTH FLORIDA, published 2025).
# T1: neutrophil elastase (human, UniProt P08246 30-247, limits assumed)
# T1 sequence (looked up): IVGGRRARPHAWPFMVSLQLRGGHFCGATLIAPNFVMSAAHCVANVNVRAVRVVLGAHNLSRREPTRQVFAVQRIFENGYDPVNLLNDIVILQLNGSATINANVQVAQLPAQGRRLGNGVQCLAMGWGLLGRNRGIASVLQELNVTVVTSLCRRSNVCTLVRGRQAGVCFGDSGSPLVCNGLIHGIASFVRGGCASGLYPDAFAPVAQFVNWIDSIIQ
# Key:
# [1] = target: T1, neutrophil elastase; test: cell-based or functional assay
# [2] = target: Matrix metalloproteinase-2 (UniProt P08253 110-465, limits assumed); test: cell-based or functional assay
# Chain of Matrix metalloproteinase-2 (P08253 110-465 limits assumed): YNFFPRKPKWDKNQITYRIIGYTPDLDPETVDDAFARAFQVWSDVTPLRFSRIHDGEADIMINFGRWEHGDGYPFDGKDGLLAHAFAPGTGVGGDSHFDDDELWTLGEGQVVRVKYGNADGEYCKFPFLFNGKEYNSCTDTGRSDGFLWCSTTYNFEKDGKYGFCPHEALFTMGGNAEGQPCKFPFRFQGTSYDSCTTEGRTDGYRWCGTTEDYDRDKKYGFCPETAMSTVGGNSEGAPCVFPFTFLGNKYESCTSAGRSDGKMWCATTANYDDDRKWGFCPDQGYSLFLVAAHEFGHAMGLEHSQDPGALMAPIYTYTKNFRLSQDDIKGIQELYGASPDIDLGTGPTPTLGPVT
Binder,IC50 of NE inhibition (kinetic colorimetric substrate assay) [1] [µg/mL],IC50 of MMP-2 inhibition (kinetic colorimetric substrate assay) [2] [µg/mL],% inhibition of NE near the IC50 of the dual inhibitor [1] [%]
PMPD2-L10FLAG-APP-IP (designed binder) EEKCTPGQVKQQDCNTCTCTPTGVWGCTLMGCQPAVPGVGVPGVGVPGLGVPGVGVPGVGVPGVGVPGVGVPGLGVPGVGVPGVGVPGVGVPGVGVPGLGVPGVGVPGVGVPGVGVPGVGVPGLGVPGVGVPGVGVPGVGVPGVGVPGLGVPGVGVPGVGVPGVGVPGVGVPGLGVPGVGVPGVGVPGVGVPGVGVPGLGVPGVGVPGVGVPGVGVPGVGVPGLGVPGVGVPGVGVPGVGVPGVGVPGLGVPGVGVPGVGVPGVGVPGVGVPGLGVPGVGVPGVGDYKDDDDKISYGNDALMP,0.00085,40,
PMPD2-L10FLAG (designed binder) EEKCTPGQVKQQDCNTCTCTPTGVWGCTLMGCQPAVPGVGVPGVGVPGLGVPGVGVPGVGVPGVGVPGVGVPGLGVPGVGVPGVGVPGVGVPGVGVPGLGVPGVGVPGVGVPGVGVPGVGVPGLGVPGVGVPGVGVPGVGVPGVGVPGLGVPGVGVPGVGVPGVGVPGVGVPGLGVPGVGVPGVGVPGVGVPGVGVPGLGVPGVGVPGVGVPGVGVPGVGVPGLGVPGVGVPGVGVPGVGVPGVGVPGLGVPGVGVPGVGVPGVGVPGVGVPGLGVPGVGVPGVGDYKDDDDK,0.00708,,
APP-IP-L10FLAG (designed binder) ISYGNDALMPVPGVGVPGVGVPGLGVPGVGVPGVGVPGVGVPGVGVPGLGVPGVGVPGVGVPGVGVPGVGVPGLGVPGVGVPGVGVPGVGVPGVGVPGLGVPGVGVPGVGVPGVGVPGVGVPGLGVPGVGVPGVGVPGVGVPGVGVPGLGVPGVGVPGVGVPGVGVPGVGVPGLGVPGVGVPGVGVPGVGVPGVGVPGLGVPGVGVPGVGVPGVGVPGVGVPGLGVPGVGVPGVGVPGVGVPGVGVPGLGVPGVGVPGVGDYKDDDDK,,50,8.4
